Test results from the supplement of paper PMC9112550, “Optimization of the antimicrobial peptide Bac7 by deep mutational scanning” (BMC Biology, 2022).

Each sequence was assayed on Escherichia coli TOP10 (assay: shrunken log2 fold change of peptide-encoding DNA abundance (4.5 h post-induction vs induction); higher = less antimicrobial activity (less host growth inhibition)). Conditions: time post-induction: 4.5 h; library: site-saturation at positions 5, 18, 19, 20.
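Note: peptides expressed intracellularly from a pBAD plasmid library in pooled LB shake-flask culture, induced with 0.3% L-arabinose, DNA abundance read by NGS, three biological replicates, DESeq2 with apeglm shrinkage.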

Which “shrunken log2 fold change” value does the source give for RRIRHRPPRLPRPRPRPKKEPRP here?
The value was -0.0501.

For RRIRDRPPRLPRPRPRPSWKPRP, which “shrunken log2 fold change” value is on record?
The value was -0.015.

With RRIRMRPPRLPRPRPRPMIEPRP as the sequence, how does the “shrunken log2 fold change” value read?
Its value is 0.17.

Which “shrunken log2 fold change” value does the source give for RRIRARPPRLPRPRPRPHMWPRP here?
Its value is -0.000358.

Which “shrunken log2 fold change” value does the source give for RRIRTRPPRLPRPRPRPVYWPRP here?
Its value is -0.103.

With RRIRRRPPRLPRPRPRPCMDPRP as the sequence, how does the “shrunken log2 fold change” value read?
The value was -0.229.

How did the “shrunken log2 fold change” value turn out when RRIRLRPPRLPRPRPRPIANPRP was run?
Its value is -0.00904.

For RRIRARPPRLPRPRPRPNSVPRP, which “shrunken log2 fold change” value is on record?
The value was 0.0162.

RRIRQRPPRLPRPRPRPFAYPRP was tested. Which “shrunken log2 fold change” value did it give?
The value was -0.0651.

How did the “shrunken log2 fold change” value turn out when RRIRTRPPRLPRPRPRPSLLPRP was run?
Its value is -0.0532.

How did the “shrunken log2 fold change” value turn out when RRIRCRPPRLPRPRPRPNLYPRP was run?
Its value is -0.347.

How did the “shrunken log2 fold change” value turn out when RRIRRRPPRLPRPRPRPAPFPRP was run?
Its value is 0.863.

How did the “shrunken log2 fold change” value turn out when RRIRRRPPRLPRPRPRPRTNPRP was run?
The value was 0.482.

RRIRNRPPRLPRPRPRPAMKPRP was tested. Which “shrunken log2 fold change” value did it give?
Its value is 0.284.

For RRIRSRPPRLPRPRPRPLGNPRP, which “shrunken log2 fold change” value is on record?
The value was -0.43.

RRIRKRPPRLPRPRPRPMGNPRP was tested. Which “shrunken log2 fold change” value did it give?
The value was 0.111.

With RRIRERPPRLPRPRPRPRHCPRP as the sequence, how does the “shrunken log2 fold change” value read?
The value was -0.133.

Which “shrunken log2 fold change” value does the source give for RRIRERPPRLPRPRPRPWPTPRP here?
The value was 0.549.

How did the “shrunken log2 fold change” value turn out when RRIRNRPPRLPRPRPRPAQSPRP was run?
Its value is 0.0508.

Which “shrunken log2 fold change” value does the source give for RRIRARPPRLPRPRPRPHIPPRP here?
Its value is -0.671.

How did the “shrunken log2 fold change” value turn out when RRIRLRPPRLPRPRPRPIQQPRP was run?
The value was -0.0102.

How did the “shrunken log2 fold change” value turn out when RRIRSRPPRLPRPRPRPTQDPRP was run?
Its value is 0.445.

Which “shrunken log2 fold change” value does the source give for RRIRGRPPRLPRPRPRPWINPRP here?
Its value is -0.137.

With RRIRVRPPRLPRPRPRPGGDPRP as the sequence, how does the “shrunken log2 fold change” value read?
The value was 0.0318.

For RRIRGRPPRLPRPRPRPFTEPRP, which “shrunken log2 fold change” value is on record?
The value was 0.104.

RRIRWRPPRLPRPRPRPEMVPRP was tested. Which “shrunken log2 fold change” value did it give?
The value was -0.222.

With RRIRKRPPRLPRPRPRPAMKPRP as the sequence, how does the “shrunken log2 fold change” value read?
The value was 0.141.

With RRIRCRPPRLPRPRPRPNRKPRP as the sequence, how does the “shrunken log2 fold change” value read?
The value was -0.127.

RRIRPRPPRLPRPRPRPYGPPRP was tested. Which “shrunken log2 fold change” value did it give?
The value was -0.37.

With RRIRFRPPRLPRPRPRPLDLPRP as the sequence, how does the “shrunken log2 fold change” value read?
Its value is -0.366.

With RRIRERPPRLPRPRPRPRDWPRP as the sequence, how does the “shrunken log2 fold change” value read?
The value was 0.311.

Which “shrunken log2 fold change” value does the source give for RRIRCRPPRLPRPRPRPYWDPRP here?
The value was -1.1.

For RRIRLRPPRLPRPRPRPRPQPRP, which “shrunken log2 fold change” value is on record?
Its value is 0.398.

Which “shrunken log2 fold change” value does the source give for RRIRSRPPRLPRPRPRPPTPPRP here?
The value was 0.63.

For RRIRRRPPRLPRPRPRPHASPRP, which “shrunken log2 fold change” value is on record?
Its value is 0.201.

For RRIRKRPPRLPRPRPRPSFFPRP, which “shrunken log2 fold change” value is on record?
The value was -0.0585.

How did the “shrunken log2 fold change” value turn out when RRIRPRPPRLPRPRPRPRDPPRP was run?
The value was 0.695.

For RRIRKRPPRLPRPRPRPGYYPRP, which “shrunken log2 fold change” value is on record?
The value was -0.0439.

For RRIRVRPPRLPRPRPRPMDTPRP, which “shrunken log2 fold change” value is on record?
Its value is -0.171.

With RRIRARPPRLPRPRPRPWAYPRP as the sequence, how does the “shrunken log2 fold change” value read?
The value was -0.0297.

With RRIRMRPPRLPRPRPRPTKVPRP as the sequence, how does the “shrunken log2 fold change” value read?
The value was 0.126.

For RRIRYRPPRLPRPRPRPKIPPRP, which “shrunken log2 fold change” value is on record?
Its value is -0.21.

RRIRARPPRLPRPRPRPNAWPRP was tested. Which “shrunken log2 fold change” value did it give?
Its value is 0.44.

For RRIRVRPPRLPRPRPRPMYVPRP, which “shrunken log2 fold change” value is on record?
The value was 3.48.

With RRIRTRPPRLPRPRPRPGFSPRP as the sequence, how does the “shrunken log2 fold change” value read?
Its value is -0.016.

With RRIRYRPPRLPRPRPRPNFVPRP as the sequence, how does the “shrunken log2 fold change” value read?
The value was -0.0161.

With RRIRVRPPRLPRPRPRPGHTPRP as the sequence, how does the “shrunken log2 fold change” value read?
Its value is -0.000319.

Which “shrunken log2 fold change” value does the source give for RRIRFRPPRLPRPRPRPVWVPRP here?
The value was 0.0313.

How did the “shrunken log2 fold change” value turn out when RRIRARPPRLPRPRPRPQPTPRP was run?
Its value is 0.781.

For RRIRDRPPRLPRPRPRPLIHPRP, which “shrunken log2 fold change” value is on record?
The value was -0.0249.

How did the “shrunken log2 fold change” value turn out when RRIRYRPPRLPRPRPRPPENPRP was run?
Its value is -0.145.

RRIRKRPPRLPRPRPRPIGYPRP was tested. Which “shrunken log2 fold change” value did it give?
The value was -0.0204.

RRIRGRPPRLPRPRPRPYGPPRP was tested. Which “shrunken log2 fold change” value did it give?
The value was 0.0138.

Which “shrunken log2 fold change” value does the source give for RRIRERPPRLPRPRPRPPSHPRP here?
The value was -0.209.

For RRIRMRPPRLPRPRPRPPKQPRP, which “shrunken log2 fold change” value is on record?
Its value is 0.742.

RRIRKRPPRLPRPRPRPKEKPRP was tested. Which “shrunken log2 fold change” value did it give?
The value was 0.0508.

For RRIRDRPPRLPRPRPRPQNSPRP, which “shrunken log2 fold change” value is on record?
Its value is -0.24.

With RRIRNRPPRLPRPRPRPKQSPRP as the sequence, how does the “shrunken log2 fold change” value read?
Its value is -0.135.

For RRIRSRPPRLPRPRPRPAFDPRP, which “shrunken log2 fold change” value is on record?
The value was 1.02.

For RRIRHRPPRLPRPRPRPTHDPRP, which “shrunken log2 fold change” value is on record?
Its value is 0.124.

Which “shrunken log2 fold change” value does the source give for RRIRNRPPRLPRPRPRPTLMPRP here?
The value was 0.0843.

With RRIRQRPPRLPRPRPRPHWFPRP as the sequence, how does the “shrunken log2 fold change” value read?
The value was 0.0358.

For RRIRERPPRLPRPRPRPQSIPRP, which “shrunken log2 fold change” value is on record?
Its value is -2.26.

RRIRTRPPRLPRPRPRPQGHPRP was tested. Which “shrunken log2 fold change” value did it give?
Its value is -0.122.

Which “shrunken log2 fold change” value does the source give for RRIRERPPRLPRPRPRPLVGPRP here?
Its value is -0.198.

RRIRQRPPRLPRPRPRPSVAPRP was tested. Which “shrunken log2 fold change” value did it give?
The value was -0.0735.

How did the “shrunken log2 fold change” value turn out when RRIRERPPRLPRPRPRPLYGPRP was run?
The value was -0.136.

How did the “shrunken log2 fold change” value turn out when RRIRHRPPRLPRPRPRPDRDPRP was run?
Its value is -0.0136.

With RRIRTRPPRLPRPRPRPLGGPRP as the sequence, how does the “shrunken log2 fold change” value read?
Its value is 0.137.

With RRIRWRPPRLPRPRPRPLGIPRP as the sequence, how does the “shrunken log2 fold change” value read?
Its value is -0.242.

Which “shrunken log2 fold change” value does the source give for RRIRRRPPRLPRPRPRPKSLPRP here?
Its value is 0.0308.

How did the “shrunken log2 fold change” value turn out when RRIRHRPPRLPRPRPRPPIFPRP was run?
Its value is -0.163.

RRIRVRPPRLPRPRPRPLPVPRP was tested. Which “shrunken log2 fold change” value did it give?
The value was 0.0196.

With RRIRFRPPRLPRPRPRPHHGPRP as the sequence, how does the “shrunken log2 fold change” value read?
The value was 0.000407.

RRIRHRPPRLPRPRPRPHLHPRP was tested. Which “shrunken log2 fold change” value did it give?
The value was -0.513.

Which “shrunken log2 fold change” value does the source give for RRIRIRPPRLPRPRPRPIMTPRP here?
Its value is -0.26.

Which “shrunken log2 fold change” value does the source give for RRIRQRPPRLPRPRPRPNCAPRP here?
Its value is 0.00462.

For RRIRRRPPRLPRPRPRPRRDPRP, which “shrunken log2 fold change” value is on record?
The value was 0.19.

For RRIRWRPPRLPRPRPRPIDQPRP, which “shrunken log2 fold change” value is on record?
The value was 0.105.

For RRIRCRPPRLPRPRPRPWELPRP, which “shrunken log2 fold change” value is on record?
Its value is 0.268.

With RRIRSRPPRLPRPRPRPELKPRP as the sequence, how does the “shrunken log2 fold change” value read?
Its value is -0.0512.

How did the “shrunken log2 fold change” value turn out when RRIRHRPPRLPRPRPRPLCEPRP was run?
Its value is 0.197.

How did the “shrunken log2 fold change” value turn out when RRIRLRPPRLPRPRPRPEENPRP was run?
The value was -0.00256.

For RRIRFRPPRLPRPRPRPMKKPRP, which “shrunken log2 fold change” value is on record?
Its value is -0.0398.

How did the “shrunken log2 fold change” value turn out when RRIRDRPPRLPRPRPRPNEHPRP was run?
Its value is -0.0707.

RRIRYRPPRLPRPRPRPPVVPRP was tested. Which “shrunken log2 fold change” value did it give?
The value was 0.00632.

Which “shrunken log2 fold change” value does the source give for RRIRMRPPRLPRPRPRPPVIPRP here?
Its value is 0.312.

Which “shrunken log2 fold change” value does the source give for RRIRNRPPRLPRPRPRPPAKPRP here?
The value was 0.521.

For RRIRPRPPRLPRPRPRPFMPPRP, which “shrunken log2 fold change” value is on record?
The value was -0.793.

For RRIRQRPPRLPRPRPRPYTKPRP, which “shrunken log2 fold change” value is on record?
The value was -0.111.

RRIRARPPRLPRPRPRPRAGPRP was tested. Which “shrunken log2 fold change” value did it give?
The value was 0.896.

For RRIRDRPPRLPRPRPRPFYAPRP, which “shrunken log2 fold change” value is on record?
The value was -0.439.

RRIRNRPPRLPRPRPRPCHFPRP was tested. Which “shrunken log2 fold change” value did it give?
The value was -0.166.

RRIRARPPRLPRPRPRPVLQPRP was tested. Which “shrunken log2 fold change” value did it give?
The value was 1.09.

For RRIRCRPPRLPRPRPRPGWEPRP, which “shrunken log2 fold change” value is on record?
Its value is 0.253.

RRIRPRPPRLPRPRPRPLAWPRP was tested. Which “shrunken log2 fold change” value did it give?
The value was 0.439.

Which “shrunken log2 fold change” value does the source give for RRIRCRPPRLPRPRPRPQPGPRP here?
The value was 0.437.

RRIRTRPPRLPRPRPRPDPLPRP was tested. Which “shrunken log2 fold change” value did it give?
The value was -0.145.

For RRIRIRPPRLPRPRPRPACPPRP, which “shrunken log2 fold change” value is on record?
Its value is -0.146.

Which “shrunken log2 fold change” value does the source give for RRIRNRPPRLPRPRPRPFDPPRP here?
The value was -0.805.

With RRIRRRPPRLPRPRPRPRWVPRP as the sequence, how does the “shrunken log2 fold change” value read?
The value was 0.407.

RRIRTRPPRLPRPRPRPPRLPRP was tested. Which “shrunken log2 fold change” value did it give?
The value was 0.343.

Which “shrunken log2 fold change” value does the source give for RRIRWRPPRLPRPRPRPLQQPRP here?
The value was 0.115.

With RRIRLRPPRLPRPRPRPRVGPRP as the sequence, how does the “shrunken log2 fold change” value read?
Its value is 0.295.

How did the “shrunken log2 fold change” value turn out when RRIRDRPPRLPRPRPRPNARPRP was run?
Its value is 0.299.

With RRIRQRPPRLPRPRPRPSMFPRP as the sequence, how does the “shrunken log2 fold change” value read?
The value was -0.667.

With RRIRHRPPRLPRPRPRPEVVPRP as the sequence, how does the “shrunken log2 fold change” value read?
Its value is -0.018.

RRIRRRPPRLPRPRPRPKAHPRP was tested. Which “shrunken log2 fold change” value did it give?
Its value is 0.515.

With RRIRHRPPRLPRPRPRPNFFPRP as the sequence, how does the “shrunken log2 fold change” value read?
The value was 0.307.
